This note sets out measurements from paper PMC9410543, “Nonlytic cellular release of hepatitis A virus requires dual capsid recruitment of the ESCRT-associated Bro1 domain proteins HD-PTP and ALIX” (PLoS Pathogens, 2022).

The target of the experiment is T1, 6XHis-tagged ALIX Bro1 protein (residues 1–392) (UniProt Q8WUM4 1-392).
T1 construct: Bro1 domain of ALIX, residues 1-392; also called recombinant ALIX Bro1; recombinant Bro1; source: E. coli, recombinant
T1 sequence (looked up): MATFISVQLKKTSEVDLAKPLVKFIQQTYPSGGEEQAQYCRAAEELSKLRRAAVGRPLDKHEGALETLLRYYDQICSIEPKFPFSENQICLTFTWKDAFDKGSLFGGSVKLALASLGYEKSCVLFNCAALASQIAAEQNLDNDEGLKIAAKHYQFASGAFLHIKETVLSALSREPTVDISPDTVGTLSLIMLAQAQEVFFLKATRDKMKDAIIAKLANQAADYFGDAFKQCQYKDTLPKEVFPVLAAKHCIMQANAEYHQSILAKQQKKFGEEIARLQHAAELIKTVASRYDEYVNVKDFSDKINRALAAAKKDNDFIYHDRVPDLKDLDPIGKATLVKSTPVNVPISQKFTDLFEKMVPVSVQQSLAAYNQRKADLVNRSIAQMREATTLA
Put plainly: pull-down. Conditions: both partners purified.

B1: peptide representing the C-terminal 20 residues of CHMP4B (peptide, UniProt Q9H444 205-224, looked up)
peptide: KKKEEEDDDMKELENWAGSM
notes: also called CHMP4 peptide; source: synthetic peptide
In the case of B1, the binding result was “binds”.
